Measured values from US20100129369A1 (Eli Lilly, published 2010).

What was measured:
[1] = molecular target: T1, Cynomolgus Monkey c-Met-Flis-Fc ECD (cynomolgus monkey); assay: SPR Biacore, antibody captured, ECD-Fc analyte, 1:1 model
T1 construct: also called Cynomolgus Monkey cMet-ECD-Fc-Flis; cynomolgus monkey c-Met ECD
Description: (§1) A Biacore® 2000 instrument is used to measure the binding kinetics of c-Met antibodies to human, cynomolgus monkey, and rat c-Met ECDs. Measurements are performed at 25° C. Samples are dissolved in HBS-EP buffer (150 mM sodium chloride, 3 mM EDTA, 0.005% (w/v) surfactant P-20, and 10 mM N-2-hydroxyethylpiperazine-N′-2-ethanesulfonic acid (HEPES) at pH 7.4; #BR-1001-88).
(§2) Binding is evaluated using multiple cycles. Each cycle is performed at a flow rate of 50 μL/min., and consists of the following steps: injection of about 10 μL of a c-Met antibody at 10 μg/mL aiming at a capture of 40-100 RUs, injection of 250 μL of human, cynomolgus, or rat c-Met-Flis-Fc ECD (starting at 100 nM and using two-fold serial dilutions for each cycle) followed by 20 min. for dissociation, and regeneration using about 30 μL of 10 mM glycine hydrochloride, pH 1.5. Association and dissociation rates for each cycle are evaluated using a “1:1 (Langmuir) binding” model in the BIAevaluation software, version 4.1.

Human c-Met-Flis-Fc ECD = molecular target: T2, Human c-Met-Flis-Fc ECD (human); assay: as above
T2 construct: also called human c-Met extracellular domain (ECD)-Fc-Flis fusion; Human cMet-ECD-Fc-Flis
Description: as §1, §2

RON-ECD-Fc = molecular target: T3, RON-ECD-Fc (human, UniProt Q04912 25-957); assay: ELISA, coated ECD-Fc, antibody 0.060 ng/mL
T3 construct: extracellular domain; Bought reagent; not shown: Fc part of the bought fusion
T3 sequence (looked up): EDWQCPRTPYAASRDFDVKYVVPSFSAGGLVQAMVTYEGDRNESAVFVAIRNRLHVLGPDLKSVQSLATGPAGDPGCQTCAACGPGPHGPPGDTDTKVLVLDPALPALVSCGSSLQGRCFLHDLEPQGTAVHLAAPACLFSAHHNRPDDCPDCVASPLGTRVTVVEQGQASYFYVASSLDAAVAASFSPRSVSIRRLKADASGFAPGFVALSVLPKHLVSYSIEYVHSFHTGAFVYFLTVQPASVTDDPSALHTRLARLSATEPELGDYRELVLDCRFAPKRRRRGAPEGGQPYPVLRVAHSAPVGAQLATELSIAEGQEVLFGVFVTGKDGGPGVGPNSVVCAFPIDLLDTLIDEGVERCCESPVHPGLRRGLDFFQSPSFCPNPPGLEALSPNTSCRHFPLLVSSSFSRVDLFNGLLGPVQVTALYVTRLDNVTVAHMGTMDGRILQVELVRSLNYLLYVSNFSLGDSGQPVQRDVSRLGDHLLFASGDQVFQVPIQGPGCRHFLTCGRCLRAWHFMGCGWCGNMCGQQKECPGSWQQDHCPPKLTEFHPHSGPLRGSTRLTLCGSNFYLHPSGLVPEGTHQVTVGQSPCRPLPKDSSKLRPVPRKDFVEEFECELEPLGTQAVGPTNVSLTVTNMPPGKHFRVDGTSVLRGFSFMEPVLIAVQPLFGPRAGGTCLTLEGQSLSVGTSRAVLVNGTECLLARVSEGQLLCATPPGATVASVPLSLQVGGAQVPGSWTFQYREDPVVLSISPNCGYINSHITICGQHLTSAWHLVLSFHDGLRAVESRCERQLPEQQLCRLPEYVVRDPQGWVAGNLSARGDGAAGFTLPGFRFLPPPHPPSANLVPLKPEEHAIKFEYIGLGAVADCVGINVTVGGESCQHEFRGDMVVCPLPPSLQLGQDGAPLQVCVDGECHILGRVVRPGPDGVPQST

T1 sequence (chain, as listed by the source limits assumed): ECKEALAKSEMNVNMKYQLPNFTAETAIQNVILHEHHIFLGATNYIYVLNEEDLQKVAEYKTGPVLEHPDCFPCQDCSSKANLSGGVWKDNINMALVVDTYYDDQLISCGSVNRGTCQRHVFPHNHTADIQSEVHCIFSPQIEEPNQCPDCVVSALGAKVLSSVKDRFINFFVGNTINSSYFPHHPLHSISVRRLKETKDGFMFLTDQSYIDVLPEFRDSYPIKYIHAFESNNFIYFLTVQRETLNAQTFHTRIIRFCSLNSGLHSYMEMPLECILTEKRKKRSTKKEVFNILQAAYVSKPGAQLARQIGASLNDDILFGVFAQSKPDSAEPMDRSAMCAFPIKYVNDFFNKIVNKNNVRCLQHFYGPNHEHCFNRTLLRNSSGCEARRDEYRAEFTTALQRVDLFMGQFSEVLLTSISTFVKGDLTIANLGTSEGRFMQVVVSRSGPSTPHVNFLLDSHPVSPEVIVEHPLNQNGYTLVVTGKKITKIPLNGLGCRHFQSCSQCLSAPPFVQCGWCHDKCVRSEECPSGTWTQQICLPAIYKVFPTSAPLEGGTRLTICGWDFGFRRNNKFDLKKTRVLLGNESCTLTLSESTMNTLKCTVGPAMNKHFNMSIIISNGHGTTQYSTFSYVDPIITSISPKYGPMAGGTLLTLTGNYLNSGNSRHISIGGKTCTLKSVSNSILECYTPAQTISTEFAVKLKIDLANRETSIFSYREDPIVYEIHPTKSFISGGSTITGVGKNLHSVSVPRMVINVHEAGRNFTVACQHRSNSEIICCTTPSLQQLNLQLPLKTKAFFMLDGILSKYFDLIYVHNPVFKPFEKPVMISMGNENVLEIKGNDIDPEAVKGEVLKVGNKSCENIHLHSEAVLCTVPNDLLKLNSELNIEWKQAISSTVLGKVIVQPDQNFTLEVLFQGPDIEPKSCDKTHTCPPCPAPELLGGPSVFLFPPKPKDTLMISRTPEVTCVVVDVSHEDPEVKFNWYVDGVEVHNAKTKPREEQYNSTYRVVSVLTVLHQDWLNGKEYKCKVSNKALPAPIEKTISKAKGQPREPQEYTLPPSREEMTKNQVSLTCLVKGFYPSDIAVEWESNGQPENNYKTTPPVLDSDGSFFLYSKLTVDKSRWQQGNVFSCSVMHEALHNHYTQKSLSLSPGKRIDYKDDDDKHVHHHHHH
T2 sequence (chain, as listed by the source limits assumed): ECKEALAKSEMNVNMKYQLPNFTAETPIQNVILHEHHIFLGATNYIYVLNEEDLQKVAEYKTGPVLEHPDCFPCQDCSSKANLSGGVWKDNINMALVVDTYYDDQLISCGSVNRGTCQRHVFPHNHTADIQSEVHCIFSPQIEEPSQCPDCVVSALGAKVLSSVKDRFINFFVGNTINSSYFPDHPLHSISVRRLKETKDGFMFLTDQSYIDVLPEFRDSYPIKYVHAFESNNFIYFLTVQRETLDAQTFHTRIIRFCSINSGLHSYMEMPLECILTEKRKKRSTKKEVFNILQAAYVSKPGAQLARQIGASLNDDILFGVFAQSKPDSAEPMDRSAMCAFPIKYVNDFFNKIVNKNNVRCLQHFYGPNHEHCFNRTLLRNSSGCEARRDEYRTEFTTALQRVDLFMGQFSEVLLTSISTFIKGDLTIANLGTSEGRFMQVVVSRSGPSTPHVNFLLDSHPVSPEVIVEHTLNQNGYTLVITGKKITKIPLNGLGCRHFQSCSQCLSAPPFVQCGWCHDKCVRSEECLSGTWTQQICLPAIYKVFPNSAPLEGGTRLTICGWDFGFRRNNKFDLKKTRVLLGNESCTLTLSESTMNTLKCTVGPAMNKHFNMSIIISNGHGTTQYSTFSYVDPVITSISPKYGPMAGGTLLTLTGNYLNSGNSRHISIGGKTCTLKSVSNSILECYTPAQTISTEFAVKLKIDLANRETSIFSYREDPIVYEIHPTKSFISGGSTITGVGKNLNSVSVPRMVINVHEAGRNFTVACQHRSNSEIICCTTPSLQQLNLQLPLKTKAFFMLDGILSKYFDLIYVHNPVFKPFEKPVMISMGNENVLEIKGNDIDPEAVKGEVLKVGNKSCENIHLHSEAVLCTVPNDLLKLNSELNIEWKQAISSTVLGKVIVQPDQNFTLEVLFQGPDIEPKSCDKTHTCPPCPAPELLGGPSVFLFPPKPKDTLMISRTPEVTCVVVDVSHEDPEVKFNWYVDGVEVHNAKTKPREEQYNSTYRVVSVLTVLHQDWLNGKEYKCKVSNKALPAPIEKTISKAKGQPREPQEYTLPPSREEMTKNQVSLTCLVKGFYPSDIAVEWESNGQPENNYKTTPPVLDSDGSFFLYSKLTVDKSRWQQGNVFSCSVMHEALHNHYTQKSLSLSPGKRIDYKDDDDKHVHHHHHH

- Kd [1]: 3.6 nM
- koff [1]: 0.00045 s⁻¹
- kon [1]: 140000 M⁻¹ s⁻¹
- Kd (Human c-Met-Flis-Fc ECD): 4 nM
- koff (Human c-Met-Flis-Fc ECD): 0.0003 s⁻¹
- kon (Human c-Met-Flis-Fc ECD): 160000 M⁻¹ s⁻¹
- Average A450 nm (RON-ECD-Fc): 0.087 A450 nm
B1: C8-6 (antibody, human IgG2, kappa, V domains shown)
VH: QVQLVQSGAEVKKPGASVKVSCKASGYTFTDYYMHWVRQAPGQGLEWMGRVNPNRGGTTYNQKFEGRVTMTTDTSTSTAYMELRSLRSDDTAVYYCARTNWLDYWGQGTTVTVSS
VL: DIQMTQSPSSLSASVGDRVTITCSVSSSVSSIYLHWYQQKPGKAPKLLIYSTSNLASGVPSRFSGSGSGTDFTLTISSLQPEDFATYYCIQYSGYPLTFGGGTKVEIKR
notes: Called IgG4, kappa; also called Mab C8-6
